Legend:
[1] = tested on: P1, H2N-GPQGIAGQR(GPO)4GG-OH
[2] = tested on: lipopeptide LP1, CH3(CH2)16COHN-GPQGIAGQR(GPO)4GG-OH

Sequence of recombinant form of human MMP-9, containing the catalytic and fibronectin domains of the enzyme (chain, as listed by the source): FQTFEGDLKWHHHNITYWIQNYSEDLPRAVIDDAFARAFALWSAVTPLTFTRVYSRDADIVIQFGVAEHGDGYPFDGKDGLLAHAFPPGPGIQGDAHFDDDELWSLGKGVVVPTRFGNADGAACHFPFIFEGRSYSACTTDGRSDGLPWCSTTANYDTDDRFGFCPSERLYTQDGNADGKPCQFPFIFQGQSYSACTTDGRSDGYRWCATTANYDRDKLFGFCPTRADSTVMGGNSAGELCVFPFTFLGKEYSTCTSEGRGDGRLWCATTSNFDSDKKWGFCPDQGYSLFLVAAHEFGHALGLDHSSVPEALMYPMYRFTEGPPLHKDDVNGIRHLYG
Sequence of trypsin (P00760 24-246): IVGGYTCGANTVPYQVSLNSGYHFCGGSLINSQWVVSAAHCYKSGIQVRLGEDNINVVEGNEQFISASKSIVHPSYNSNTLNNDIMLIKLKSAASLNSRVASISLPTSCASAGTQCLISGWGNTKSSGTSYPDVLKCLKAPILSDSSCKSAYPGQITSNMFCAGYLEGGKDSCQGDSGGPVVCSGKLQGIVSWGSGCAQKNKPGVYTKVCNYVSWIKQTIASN

Substance | cleavage of the peptide, products analyzed by RP-HPLC [1] | cleavage of the lipopeptide, products analyzed by RP-HPLC [2] | release of encapsulated carboxyfluorescein from LP1/DSPC liposomes (fluorescence at 518 nm, five hours) [2] | release of encapsulated carboxyfluorescein from LP1/DSPC liposomes (fluorescence at 518 nm) [2]
recombinant form of human MMP-9, containing the catalytic and fibronectin domains of the enzyme | The peptide P1 (Rpn=0.04) was efficiently cleaved by the target enzyme MMP-9 | the lipopeptide LP1 (Rpn=0.11) was partially cleaved by MMP-9 (in 2 hours, FIG. 2A) | In five hours, about 55% of the encapsulated dye was found to be released | –
trypsin | efficiently cleaved by the target enzyme MMP-9 as well as by a non-specific proteolytic enzyme, trypsin | – | – | trypsin, once again failed to release the dye from the liposome

From patent US20060210549
